Source: patent US10138280B2, “Polypeptides targeting glycosylated MUC2 proteins, methods of synthesis, their nucleic acids and uses thereof” (INSTITUT PASTEUR, priority 2011, dated 2018)

Key:
[1] = tested on: HT-29 MTX cells; assay: Cell toxicity, Sytox Green assay; type: cell-based, human; settings: differentiated HT-29 MTX; 1 μg/mL, up to 10 h, serum starved media; Student test NS, p>0.05, n=3
Description: (§1) FIGS. 8A-8D. (FIG. 8A) Cell toxicity of Cy5-MUB70 tested on HT-29-MTX and Hela epithelial cells. Cell survival was assessed using Sytoxgreen dye on cultures exposed to 1 μg/mL Cy5-MUB70 from 0 to 10 h, as indicated. NS indicates P>0.05 (Student's T-test). (FIG. 8B) Rabbit colonic and ileal mucus staining on fixed tissues (PFA 4%), using Cy5-MUB70 (1 μg/mL) (blue). Actin is stained in red (Phall.-RRX). Bar is 50 μm. (FIG. 8C) Human ex vivo colon sample was incubated for 2 h with 1 μg/mL Cy5-MUB70 in a serum-free media. Resulting fluorescent staining was assessed using a two-photons microscope (see Methods). Z-projection, performed using ImageJ software, allows 3D localization of Cy5-MUB70 fluorescence signal. […] Human tissue autofluorescence is detected in the same red channel as Cy5.
(§2) Hela cells were grown in DMEM medium supplemental with 10% FCS. […] Cell viability was determined by staining with Sytox Green (Invitrogen) as described by the manufacturer. […] Fluorescence was measured using a FACS flow cytometer (BD systems) recording at least 10,000 events. Data were analysed with CellQuest Pro software (BD Biosciences), and expressed as percentage survival.
(§3) As Cy5-MUB70 was envisaged to be used on living cells and organs, its cell-toxicity has been evaluated. This probe was incubated on differentiated HT-29 MTX and on Hela cells as cell viability was assessed using a Sytox Green assay (see Methods).

[2] = tested on: Hela cells; assay: Cell toxicity, Sytox Green assay; type: cell-based, human; settings: 1 μg/mL, up to 10 h, serum starved media, Student test NS, p>0.05, n=3
Description: as §1, §2, §3

[3] = tested on: guinea pig colonic mucus; assay: Mucus staining on fixed tissues, guinea pig colon; settings: fixed tissue, 1 μg/mL
Description: FIGS. 11A-11C. Mucus staining using Cy5-MUB70 on fixed tissues. (FIG. 11A) Guinea pig colon, (FIG. 11B) rabbit ileum and (FIG. 11C) mouse colon were fixed in PFA 4%. Immunofluorescent staining was performed using Cy5-MUB70 (1 μg/mL) (blue). Actin is stained in red (Phall.-RRX), Muc2 is stained in green (α-Muc2). Observations were performed using a confocal microscope. Bar is 50 μm.
Ex vivo human colon samples were obtained from Dr. E. Labruyère (Institut Pasteur) and tissue processing was performed as described previously and stored in serum free RMPI media (surgical procedure is described herein). Human mucinous carcinoma formamide fixed samples were obtained from Dr. T. Lazure (Hôpitaux Universitaires Paris-Sud, Kremlin-Bicêtre) and Pr. I. Sobhani (Hôpital Henri Mondor, Créteil). Rabbit colon and ileum samples were collected on naïve New Zealand white rabbits weighting 2.5-3 kg and fixed in PFA 3%. Same procedure was applied on intestine samples collected on guinea pigs (Charles River) and C57/B6 mice (Janvier).
Following PFA 4% or Carnoy fixation, as indicated, samples were washed in PBS, incubated at 4° C. in PBS containing 12% sucrose for 90 min, then in PBS with 18% sucrose overnight, and frozen in OCT (Sakura) on dry ice. 7 μm sections were obtained using a cryostat CM-3050 (Leica). […]

[4] = biological target: T1, human colonic mucus and goblet cells (Homo sapiens, UniProt Q02817); assay: Fluorescent staining of healthy human colon, formol fixed, paraffin embedded samples
T1 construct: Segments of human colon (ascending, descending and sigmoid colon) were obtained from fully informed patients undergoing surgery; from tissue; host or cells: healthy human colon segments (live explants, mucus collected from them, Carnoy- or formol-fixed sections)
Description: FIG. 22. Schematic description of the Cy5-MUB40-1, Cy5-MUB40-2, Cy5-MUB40-3, Cy5-MUB40-4 peptides (SEQ ID NOS 62 to 65). Fluorescent staining of human colonic mucus was performed by the addition of 1 μg/mL of the corresponding Cy5-conjugated peptides with Phalloidin-RRX (1:100) on formol fixed, paraffin embedded samples. Image acquisition was performed using a fluorescent confocal microscope (see Methods).
FIG. 23 Comparative staining analysis of human colonic goblet cells using Cy5-MUB70 and Cy5-MUB40-1. Fluorescent staining of human colonic mucus was performed by the addition of 1 μg/mL of the corresponding Cy5-conjugated peptides with Phalloidin-RRX (1:100) on formol fixed, paraffin embedded samples. Image acquisition was performed using a fluorescent confocal microscope (see Methods).
FIGS. 24A-24B. Comparative human colonic mucus staining using MUB70-Cy5 on healthy tissues and mucinous carcinomas (Coic et al, JBC, 2012 (41)). Fluorescent staining of human colonic mucus was performed by the addition of 1 μg/mL of the corresponding Cy5-conjugated peptides with Phalloidin-RRX (1:100) on formol fixed, paraffin embedded samples. Image acquisition was performed using a fluorescent confocal microscope (see Methods).
As colonic mucinous carcinomas are characterized by abnormal overproduction of Muc2 in the colon mucosa (40), the inventors have hypothesized that Cy5-MUB70 could be used as a novel fluorescent marker for the diagnosis of this pathology. […] As shown previously on a healthy colon (FIG. 3B), the luminal mucus secreted fraction is detected by Cy5-MUB70 (FIG. 24A, top panel). […] This observation might be the consequence of a higher level of mucus compaction, resulting in a lower accessibility for MUB70 to bind Muc2. […] Cy5-MUB70 has been validated as a potent innovative diagnostic tool for colonic mucinous carcinoma detection and might be optimized with alternative markers (e.g. biotin) for practical clinical applications.

[5] = tested on: neutrophiles (white blood cells) in rabbit ileum sub-mucosa; assay: Staining of neutrophiles in rabbit ileum sub-mucosa; settings: PFA 4% fixed rabbit ileum; colocalized with α-elastase (PMN) signal
Description: FIG. 13. Staining of individual neutrophiles (white blood cells) in rabbit ileum sub-mucosa. Cy5-MUB70 was incubated on PFA 4% fixed tissues. Signal was colocalized with an α-elastase (PMN) signal. (Primary antibody is α-elastase (PMN) 1:400 and secondary antibody is anti-mouse GFP 1:400, MUBCys5 1:400, Phalloidin-RRX 1:400). […] In particular, granules staining is achieved.

mucosal staining in healthy colon tissues ([4]; colonic mucosa of healthy colon tissues from the same patients): no mucosal staining was observed | luminal mucus secreted fraction staining in healthy colon ([4]; healthy colon, fixed): detected | goblet cells binding ([4]; human colonic goblet cells, fixed samples, 1 μg/mL): not recognized
B1: Cy5-MUB70: Cy5-labelled MUB70 polypeptide, labelled via Cy5 maleimide on N-terminal cysteine (conjugate)
peptide: CVHVQYIDGETDQMLRQDDLDGYTDETIPYSTAEGIKKFEGDGYELFKDNFPAGEKFDNDDTNDQFYTVIF
cell viability [1]: do not affect significantly cell viability | cell viability [2]: do not affect significantly cell viability | colonic mucus staining [3]: confirmed | neutrophile staining in tissue [5]: binding specifically a neutrophile component
